We go through one molecule from patent publication US20080045697A1 (Genentech, published 2008).

The assay deals with T1, complement C3b (UniProt P01024 23-667; P01024 751-1663).
T1 construct: range 1-645;range 729-1641; The residue numbers seem to count on C3 without its signal peptide
Kind of assay: Fig. S13A-C and results not shown.

T1 sequence (P01024 23-667 limits assumed, chain 1 of 2): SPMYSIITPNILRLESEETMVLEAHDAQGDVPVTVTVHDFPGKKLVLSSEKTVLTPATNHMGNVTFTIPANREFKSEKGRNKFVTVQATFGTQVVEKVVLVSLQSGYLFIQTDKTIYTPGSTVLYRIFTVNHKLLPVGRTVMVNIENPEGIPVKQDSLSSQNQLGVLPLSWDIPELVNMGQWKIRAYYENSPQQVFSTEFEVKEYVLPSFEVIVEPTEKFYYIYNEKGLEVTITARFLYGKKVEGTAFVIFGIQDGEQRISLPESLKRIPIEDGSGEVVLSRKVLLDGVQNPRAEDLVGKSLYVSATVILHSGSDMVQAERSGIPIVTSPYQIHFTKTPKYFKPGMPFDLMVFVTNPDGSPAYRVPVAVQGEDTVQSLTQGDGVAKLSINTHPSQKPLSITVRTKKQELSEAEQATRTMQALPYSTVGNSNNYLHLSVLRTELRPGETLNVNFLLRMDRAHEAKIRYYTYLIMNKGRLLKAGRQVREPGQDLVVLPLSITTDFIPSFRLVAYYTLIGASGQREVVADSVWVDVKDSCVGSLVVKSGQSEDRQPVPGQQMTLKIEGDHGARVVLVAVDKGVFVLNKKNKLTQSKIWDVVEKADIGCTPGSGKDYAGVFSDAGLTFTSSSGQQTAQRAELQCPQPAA
T1 sequence (P01024 751-1663 limits assumed, chain 2 of 2): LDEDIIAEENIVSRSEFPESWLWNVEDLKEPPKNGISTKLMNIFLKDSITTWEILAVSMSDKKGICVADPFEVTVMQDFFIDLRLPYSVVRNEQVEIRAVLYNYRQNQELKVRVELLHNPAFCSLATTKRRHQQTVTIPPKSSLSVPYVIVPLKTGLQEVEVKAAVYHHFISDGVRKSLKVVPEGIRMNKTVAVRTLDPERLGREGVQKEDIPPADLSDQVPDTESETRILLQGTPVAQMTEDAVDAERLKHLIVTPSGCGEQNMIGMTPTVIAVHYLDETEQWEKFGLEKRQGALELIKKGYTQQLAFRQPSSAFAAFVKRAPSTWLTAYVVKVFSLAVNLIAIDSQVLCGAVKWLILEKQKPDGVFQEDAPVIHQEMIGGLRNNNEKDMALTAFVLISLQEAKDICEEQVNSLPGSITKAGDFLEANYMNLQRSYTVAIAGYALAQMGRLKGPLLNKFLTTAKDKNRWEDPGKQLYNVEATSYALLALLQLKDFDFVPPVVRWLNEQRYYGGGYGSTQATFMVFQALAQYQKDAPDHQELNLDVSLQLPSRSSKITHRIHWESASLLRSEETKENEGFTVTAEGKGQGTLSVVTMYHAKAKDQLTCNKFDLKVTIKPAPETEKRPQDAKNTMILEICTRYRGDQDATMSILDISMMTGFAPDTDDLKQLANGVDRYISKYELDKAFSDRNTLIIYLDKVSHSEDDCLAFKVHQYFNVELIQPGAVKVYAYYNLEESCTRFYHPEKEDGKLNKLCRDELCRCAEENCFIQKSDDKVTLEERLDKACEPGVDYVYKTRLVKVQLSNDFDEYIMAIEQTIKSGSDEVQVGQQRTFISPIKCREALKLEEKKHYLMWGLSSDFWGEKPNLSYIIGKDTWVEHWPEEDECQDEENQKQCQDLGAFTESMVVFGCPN

B1: complement factor H (other, UniProt P08603 19-1231, looked up)
chain: EDCNELPPRRNTEILTGSWSDQTYPEGTQAIYKCRPGYRSLGNVIMVCRKGEWVALNPLRKCQKRPCGHPGDTPFGTFTLTGGNVFEYGVKAVYTCNEGYQLLGEINYRECDTDGWTNDIPICEVVKCLPVTAPENGKIVSSAMEPDREYHFGQAVRFVCNSGYKIEGDEEMHCSDDGFWSKEKPKCVEISCKSPDVINGSPISQKIIYKENERFQYKCNMGYEYSERGDAVCTESGWRPLPSCEEKSCDNPYIPNGDYSPLRIKHRTGDEITYQCRNGFYPATRGNTAKCTSTGWIPAPRCTLKPCDYPDIKHGGLYHENMRRPYFPVAVGKYYSYYCDEHFETPSGSYWDHIHCTQDGWSPAVPCLRKCYFPYLENGYNQNYGRKFVQGKSIDVACHPGYALPKAQTTVTCMENGWSPTPRCIRVKTCSKSSIDIENGFISESQYTYALKEKAKYQCKLGYVTADGETSGSITCGKDGWSAQPTCIKSCDIPVFMNARTKNDFTWFKLNDTLDYECHDGYESNTGSTTGSIVCGYNGWSDLPICYERECELPKIDVHLVPDRKKDQYKVGEVLKFSCKPGFTIVGPNSVQCYHFGLSPDLPICKEQVQSCGPPPELLNGNVKEKTKEEYGHSEVVEYYCNPRFLMKGPNKIQCVDGEWTTLPVCIVEESTCGDIPELEHGWAQLSSPPYYYGDSVEFNCSESFTMIGHRSITCIHGVWTQLPQCVAIDKLKKCKSSNLIILEEHLKNKKEFDHNSNIRYRCRGKEGWIHTVCINGRWDPEVNCSMAQIQLCPPPPQIPNSHNMTTTLNYRDGEKVSVLCQENYLIQEGEEITCKDGRWQSIPLCVEKIPCSQPPQIEHGTINSSRSSQESYAHGTKLSYTCEGGFRISEENETTCYMGKWSSPPQCEGLPCKSPPEISHGVVAHMSDSYQYGEEVTYKCFEGFGIDGPAIAKCLGEKWSHPPSCIKTDCLSLPSFENAIPMGEKKDVYKAGEQVTYTCATYYKMDGASNVTCINSRWTGRPTCRDTSCVNPPTVQNAYIVSRQMSKYPSGERVRYQCRSPYEMFGDEEVMCLNGNWTEPPQCKDSTGKCGPPPPIDNGDITSFPLSVYAPASSVEYQCQNLYQLEGNKRITCRNGQWSEPPKCLHPCVISREIMENYNIALRWTAKQKLYSRTGESVEFVCKRGYRLSSRSHTLRTTCWDGKLEYPTCAKR
notes: also called fH
Consider B1, for which the binding result was “binds”.
